Reference: US11384130B2, “Agent for promoting angiogenesis and methods and uses thereof” (Vasomune Therapeutics Inc., priority 2017, dated 2022)

Assays:
Format in all cases: cell-based
Conditions in all cases: positive control
Tie2 receptor [1] = biological target: T1, Tie2 receptor (Canis lupus familiaris, UniProt A0A8I3P3D4); test: Tie2 phosphorylation in primary canine aortic endothelial cells
T1 construct: primary cultured endothelial cells derived from canine aorta; host or cells: primary canine aortic endothelial cells
Description: Canine primary aortic endothelial cells (Cell Biologics) were grown in Complete canine endothelial cell medium/w kit (Cell Biologics) in 20% O2, 5% CO2 and 37° C. humidified chamber and split 1:3 once reaching 80-90% confluency. Tie2 activation studies performed on primary cynomolgus monkey glomerular endothelial cells were performed according to approaches detailed above for the rat primary glomerular endothelial cell studies.

Tie2 receptor [2] = biological target: T2, Tie2 receptor (Rattus norvegicus, UniProt A0A8I5ZW61); test: Tie2 phosphorylation in primary rat glomerular endothelial cells
T2 construct: host or cells: primary rat glomerular endothelial cells
Description: Rat primary glomerular endothelial cells (Cell Biologics) were grown in Complete rat endothelial cell medium/w kit (Cell Biologics) in 20% O2, 5% CO2 and 37° C. humidified chamber and split 1:3 once reaching 80-90% confluency. To examine the activation of Tie2 by MPA-Br in rat kidney glomerular endothelial cells, 95-100% confluent cells were stimulated with indicated concentrations of the test agent in serum-containing media for 15 minutes. Human Ang-1 (R&D Systems) was used as positive control. Cell lysates were collected using lysis buffer IC12 (detailed above) recommended in Human phospho-Tie-2 ELISA kit (R&D Systems), tyrosine-phosphorylated Tie2 and total Tie2 were measured using ELISA (Human phospho-Tie2 and total-Tie2 ELISA kits, R&D Systems) with substitution of capture antibody validated for rat Tie2. Mouse anti-Tie2 antibody (BD Pharmingen™) and rabbit TEK polyclonal antibody (MyBioSource) were used as capture antibody in pTie2 and total Tie2 ELISA, respectively. The level of Tie2 phosphorylation for all treatment groups was then normalized to that of the no treatment group (NT, complete rat endothelial cell medium) in each experiment.

Tie2 receptor [3] = test: Tie2 phosphorylation in primary cynomolgus monkey glomerular endothelial cells
Description: Primary cynomolgus monkey glomerular endothelial cells (Cell Biologics) were cultured according to details provided above for HMVEC^tert. Tie2 activation studies performed on primary cynomolgus monkey glomerular endothelial cells were performed according to approaches detailed above for the rat primary glomerular endothelial cell studies.

T2 sequence (A0A8I5ZW61 20-1121): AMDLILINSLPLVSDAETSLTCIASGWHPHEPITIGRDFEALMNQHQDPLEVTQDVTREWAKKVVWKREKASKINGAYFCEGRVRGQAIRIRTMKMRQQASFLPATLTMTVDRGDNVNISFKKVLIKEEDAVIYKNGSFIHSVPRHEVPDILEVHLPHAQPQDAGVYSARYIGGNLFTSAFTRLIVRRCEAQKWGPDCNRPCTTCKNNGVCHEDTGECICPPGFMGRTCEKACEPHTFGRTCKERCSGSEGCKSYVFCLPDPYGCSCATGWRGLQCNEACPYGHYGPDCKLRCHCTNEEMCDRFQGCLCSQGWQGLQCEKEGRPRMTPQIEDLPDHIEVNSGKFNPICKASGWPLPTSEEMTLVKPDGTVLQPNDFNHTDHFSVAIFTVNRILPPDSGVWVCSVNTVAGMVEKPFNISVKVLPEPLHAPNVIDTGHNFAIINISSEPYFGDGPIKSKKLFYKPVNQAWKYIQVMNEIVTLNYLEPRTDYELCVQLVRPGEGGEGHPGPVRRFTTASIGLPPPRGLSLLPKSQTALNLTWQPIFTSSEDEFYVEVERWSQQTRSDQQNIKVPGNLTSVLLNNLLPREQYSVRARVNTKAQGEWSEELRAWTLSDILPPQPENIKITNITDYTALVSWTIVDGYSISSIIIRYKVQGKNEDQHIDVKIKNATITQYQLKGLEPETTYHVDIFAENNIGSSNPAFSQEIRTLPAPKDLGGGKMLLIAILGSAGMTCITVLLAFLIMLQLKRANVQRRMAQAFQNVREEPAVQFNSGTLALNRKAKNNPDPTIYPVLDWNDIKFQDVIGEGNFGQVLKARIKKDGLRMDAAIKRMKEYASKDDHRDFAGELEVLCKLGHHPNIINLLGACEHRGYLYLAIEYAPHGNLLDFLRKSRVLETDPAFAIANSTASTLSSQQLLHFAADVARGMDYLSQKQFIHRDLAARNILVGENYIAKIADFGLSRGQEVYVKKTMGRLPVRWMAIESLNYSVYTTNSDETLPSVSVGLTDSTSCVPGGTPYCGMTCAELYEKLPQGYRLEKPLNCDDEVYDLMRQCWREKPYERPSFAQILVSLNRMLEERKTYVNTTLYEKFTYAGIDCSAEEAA
T1 sequence (A0A8I3P3D4 entry or part of it): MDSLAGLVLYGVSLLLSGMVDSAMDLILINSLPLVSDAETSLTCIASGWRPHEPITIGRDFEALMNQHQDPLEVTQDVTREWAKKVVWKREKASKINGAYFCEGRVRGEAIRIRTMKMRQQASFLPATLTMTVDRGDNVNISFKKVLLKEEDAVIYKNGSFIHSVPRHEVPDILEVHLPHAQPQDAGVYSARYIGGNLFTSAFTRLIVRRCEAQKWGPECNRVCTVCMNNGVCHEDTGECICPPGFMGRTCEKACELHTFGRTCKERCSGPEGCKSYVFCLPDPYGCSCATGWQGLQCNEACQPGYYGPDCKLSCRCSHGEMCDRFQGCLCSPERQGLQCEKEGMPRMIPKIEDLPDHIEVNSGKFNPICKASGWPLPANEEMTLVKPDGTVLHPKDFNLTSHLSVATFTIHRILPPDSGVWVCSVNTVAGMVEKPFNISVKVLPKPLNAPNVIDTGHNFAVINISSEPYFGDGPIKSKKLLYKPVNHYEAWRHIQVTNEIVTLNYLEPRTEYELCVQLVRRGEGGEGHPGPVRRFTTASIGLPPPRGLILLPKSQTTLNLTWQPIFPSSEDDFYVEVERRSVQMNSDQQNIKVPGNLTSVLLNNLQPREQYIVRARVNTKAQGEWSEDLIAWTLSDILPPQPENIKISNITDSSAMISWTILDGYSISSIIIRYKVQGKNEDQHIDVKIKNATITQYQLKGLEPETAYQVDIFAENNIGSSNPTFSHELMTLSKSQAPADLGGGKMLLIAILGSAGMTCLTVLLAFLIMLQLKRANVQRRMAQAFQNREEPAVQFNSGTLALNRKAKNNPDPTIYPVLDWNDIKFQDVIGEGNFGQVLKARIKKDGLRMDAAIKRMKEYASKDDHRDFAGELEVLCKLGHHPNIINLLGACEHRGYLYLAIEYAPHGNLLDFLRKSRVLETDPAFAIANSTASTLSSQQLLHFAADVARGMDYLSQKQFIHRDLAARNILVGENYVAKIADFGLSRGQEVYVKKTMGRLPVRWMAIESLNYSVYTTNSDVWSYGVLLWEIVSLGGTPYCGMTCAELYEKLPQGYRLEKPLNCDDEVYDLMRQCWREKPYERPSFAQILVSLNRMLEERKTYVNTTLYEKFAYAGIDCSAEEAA

B1: human recombinant Ang1: human recombinant angiopoietin 1 (R&D Systems), positive control for Tie2 and MAPK activation (protein, UniProt Q15389 16-498, looked up)
Angiopoietin-1: HIGCSNQRRSPENSGRRYNRIQHGQCAYTFILPEHDGNCRESTTDQYNTNALQRDAPHVEPDFSSQKLQHLEHVMENYTQWLQKLENYIVENMKSEMAQIQQNAVQNHTATMLEIGTSLLSQTAEQTRKLTDVETQVLNQTSRLEIQLLENSLSTYKLEKQLLQQTNEILKIHEKNSLLEHKILEMEGKHKEELDTLKEEKENLQGLVTRQTYIIQELEKQLNRATTNNSVLQKQQLELMDTVHNLVNLCTKEGVLLKGGKREEEKPFRDCADVYQAGFNKSGIYTIYINNMPEPKKVFCNMDVNGGGWTVIQHREDGSLDFQRGWKEYKMGFGNPSGEYWLGNEFIFAITSQRQYMLRIELMDWEGNRAYSQYDRFHIGNEKQNYRLYLKGHTGTAGKQSSLILHGADFSTKDADNDNCMCKCALMLTGGWWFDACGPSNLNGMFYTAGQNHGKLNGIKWHYFKGPSYSLRSTTMMIRPLDF
What does the source list for B1?
Tie2 phosphorylation compared to no treatment (Tie2 receptor [1]): significant increase in baseline Tie2 phosphorylation; Tie2 phosphorylation compared to no treatment (Tie2 receptor [2]): significant increase in baseline Tie2 phosphorylation; Tie2 phosphorylation compared to no treatment (Tie2 receptor [3]): significant increase in baseline Tie2 phosphorylation
